Starred links: 1 amine or outer side, 2 acyl side, 3 side chain; linkers in the order of their positions; H or OH if unused. Non-standard residues stand in square brackets, D forms with d. Groups on a side chain read outwards from the residue. No end group written: not given here. *: point of attachment. C20 diacid = O=C(O)CCCCCCCCCCCCCCCCCCC(=O)*; γGlu = O=C(O)[C@H](CCC(=O)[*:2])N[*:1]; εLys = N[C@@H](CCCCN[*:1])C(=O)[*:2]; AEEA = NCCOCCOCC(=O)O; Aib = CC(C)(N)C(=O)O
Legend:
Experiment in all cases: cell-based or functional assay
GLP-1 receptor = GLP-1 receptor (human (printed as hGLP1R), UniProt P43220 24-463)
NPY2 receptor = target: T1, NPY2 receptor (human (printed as hNPY2R), UniProt P49146 1-381)
T1 sequence (looked up): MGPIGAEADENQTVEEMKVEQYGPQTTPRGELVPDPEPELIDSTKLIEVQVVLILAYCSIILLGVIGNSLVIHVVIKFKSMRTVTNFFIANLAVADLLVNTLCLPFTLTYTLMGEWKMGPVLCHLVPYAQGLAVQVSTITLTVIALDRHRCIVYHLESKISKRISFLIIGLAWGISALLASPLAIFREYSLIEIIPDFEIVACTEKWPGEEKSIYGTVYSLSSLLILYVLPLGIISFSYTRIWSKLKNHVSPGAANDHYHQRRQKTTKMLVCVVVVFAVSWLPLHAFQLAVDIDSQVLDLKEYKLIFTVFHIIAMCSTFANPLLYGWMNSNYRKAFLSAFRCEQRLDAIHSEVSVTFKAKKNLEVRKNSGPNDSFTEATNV

GIP receptor = target: T2, GIP receptor (human (printed as hGIPR), UniProt P48546 22-466)
T2 sequence (looked up): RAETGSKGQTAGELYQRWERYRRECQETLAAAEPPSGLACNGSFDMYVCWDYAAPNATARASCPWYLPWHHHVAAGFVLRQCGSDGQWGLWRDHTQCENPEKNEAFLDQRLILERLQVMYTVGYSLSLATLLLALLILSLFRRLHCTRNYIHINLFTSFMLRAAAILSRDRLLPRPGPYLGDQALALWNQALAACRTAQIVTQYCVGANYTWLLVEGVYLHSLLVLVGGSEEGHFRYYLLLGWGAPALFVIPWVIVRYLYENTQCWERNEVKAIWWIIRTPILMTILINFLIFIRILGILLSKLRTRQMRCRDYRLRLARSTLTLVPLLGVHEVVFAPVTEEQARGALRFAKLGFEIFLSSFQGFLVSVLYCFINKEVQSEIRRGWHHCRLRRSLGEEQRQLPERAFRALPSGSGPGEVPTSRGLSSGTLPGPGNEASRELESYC

Binder	EC50 hGLP1R 0.5% hP (CreLuc) (GLP-1 receptor) [nM]	EC50 hGLP1R 100% hP (CreLuc) (GLP-1 receptor) [nM]	EC50 hNPY2R 0.5% hP (CreLuc) (NPY2 receptor) [nM]	EC50 hNPY2R 100% hP (CreLuc) (NPY2 receptor) [nM]	EC50 hGIPR 0.5% hP (CreLuc) (GIP receptor) [nM]	EC50 hGIPR 100% hP (CreLuc) (GIP receptor) [nM]
Y[Aib]EGTFTSDYSI[Aib]LEKQAQ[Aib]AFVEWLIK([εLys-γGlu-γGlu-γGlu-γGlu-γGlu-γGlu-γGlu-C20 diacid])GGPSSGASLRHYYNWLTRQRY-NH2 (also: TFA salt) [Compound 225]	0.12	1.93	14.9	50.2	0.28	1.23
Y[Aib]EGTFTSDYSI[Aib]LEKQAQ[Aib]AFVEWLIK([AEEA-AEEA-γGlu-γGlu-γGlu-γGlu-C20 diacid])GGPSEPASLRHYYNWLTRQRY-NH2 (also: TFA salt) [Compound 226]	0.24	7.6	11.4	46.2	0.43	2.6
YXEGTFTSDYSIXLEKQAQXAFVEWLIKGGPSEGQSLRHYYNWLTRQRY (Aib at 2, 13, 20; K28 side chain carries C20DA-gGlu-gGlu-gGlu-gGlu-gGlu-gGlu-eLys; C-terminal amide) [Compound 227]	0.13	3.07	10.2	44.2	0.06	1.23
YXEGTFTSDYSIXLEKQAQXAFVQWLIKGGPSEGASLRHYYNWLTRQRY (Aib at 2, 13, 20; K28 side chain carries C20DA-gGlu-gGlu-gGlu-gGlu-gGlu-OEG-OEG; C-terminal amide) [Compound 228]	0.12	4.18	9.6	30.1	0.23	1.52
YXEGTFTSDYSIXLEKQAQXAFVEWLIKGGPSSGASLRHYYNWLTRQRY (Aib at 2, 13, 20; K28 side chain carries C20DA-gGlu-gGlu-gGlu-gGlu-gGlu-OEG-OEG; C-terminal amide) [Compound 229]	0.1	3.31	10.8	27.2	0.22	1.42
Y[Aib]EGTFTSDYSI[Aib]LEKQAQ[Aib]AFVEWLIK([εLys-γGlu-γGlu-γGlu-γGlu-γGlu-C20 diacid])GGPEEGASLRHYYNWLTRQRY-NH2 (also: TFA salt) [Compound 230]	0.29	8.23	15.4	59.1	0.28	1.43
Y[Aib]EGTFTSDYSI[Aib]LEKQAQ[Aib]AFIEWLIK([AEEA-AEEA-γGlu-γGlu-γGlu-γGlu-C20 diacid])GGPSEGASLRHYYNWLTRQRY-NH2 (also: TFA salt) [Compound 231]	0.14	3.28	19.2	53	0.33	1.43
YXEGTFTSDYSIXLEKQAQXAFVEWLIKGGPSYGASLRHYYNWLTRQRY (Aib at 2, 13, 20; K28 side chain carries C20DA-gGlu-gGlu-gGlu-gGlu-gGlu-gGlu-eLys; C-terminal amide) [Compound 232]	0.21	4.88	15.3	36.8	0.19	1.64
YXEGTFTSDYSIXLEKQAQXAFVEWLIKGGPSEPASLRHYYNWLTRQRY (Aib at 2, 13, 20; K28 side chain carries C20DA-gGlu-gGlu-gGlu-gGlu-gGlu-gGlu-eLys; C-terminal amide) [Compound 233]	0.17	1.7	12.6	27.1	0.08	0.75
YXEGTFTSDLSIXLEKQAQXAFVEWLIKGGPSEGASLRHYYNWLTRQRY (Aib at 2, 13, 20; K28 side chain carries C20DA-gGlu-gGlu-gGlu-gGlu-Glu-gGlu-eLys (so in the source); C-terminal amide) [Compound 234]	0.35	2.66	25.1	48.1	0.74	3.27
Y[Aib]EGTFTSDYSI[Aib]LEKQAQ[Aib]AFVEWLIK([γGlu-γGlu-γGlu-γGlu-γGlu-γGlu-C20 diacid])GGPSSGASLRHYYNWLTRQRY-NH2 (also: TFA salt) [Compound 235]	0.12	4.64	13.9	77.7	0.34	2.81
YXEGTFTSDYSIXLEKQAQXAFVEWLIKGGPSEGASLRHYYNWLTRQRY (Aib at 2, 13, 20; NMeR (N-methyl-L-arginine) at 48; K28 side chain carries C20DA-gGlu-gGlu-gGlu-gGlu-gGlu-gGlu-eLys; C-terminal amide) [Compound 236]	0.26	3.42	31	86.6	0.3	1.41
YXEGTFTSDYSIXLEKQAQXAFVEWLIKGGPSEGESLRHYYNWLTRQRY (Aib at 2, 13, 20; K28 side chain carries C20DA-gGlu-gGlu-gGlu-gGlu-gGlu-gGlu-eLys; C-terminal amide) [Compound 237]	0.26	3.11	18	45.5	0.1	1.17
YXEGTFTSDYSIXLEKQAQXAFVEWLIKGGPSSGASLRHYYNWLTRQRY (Aib at 2, 13, 20; K28 side chain carries C20DA-gGlu-gGlu-gGlu-gGlu-gGlu; C-terminal amide) [Compound 238]	0.1	2.55	11.6	49.4	0.52	1.59
Y[Aib]EGTFTSDYSI[Aib]LEKQAQ[Aib]AFVQWLIK([AEEA-AEEA-Glu-Glu-Glu-Glu-C20 diacid])GGPSEGASLRHYYNWLTRQRY-NH2 (also: TFA salt) [Compound 239]	0.11	4.76	13.6	57	0.35	1.55
Y[Aib]EGTFTSDYSI[Aib]LEKQAQ[Aib]AFVQWLIK([εLys-Glu-Glu-Glu-Glu-Glu-C20 diacid])GGPSEGASLRHYYNWLTRQRY-NH2 (also: TFA salt) [Compound 240]	0.14	6.74	10.7	77.5	0.33	1.97
YXEGTFTSDYSIXLEKQAQXAFVEWLIKGGPSEGVSLRHYYNWLTRQRY (Aib at 2, 13, 20; K28 side chain carries C20DA-gGlu-gGlu-gGlu-gGlu-gGlu-gGlu-eLys; C-terminal amide) [Compound 241]	0.77	9.65	16.6	34.1	0.69	4.36

— US20240247080A1, “GLP1/GIP/NPY2 RECEPTOR TRIPLE AGONISTS” (Boehringer Ingelheim International GmbH, priority 2022, published 2024)
